Measured values as given in patent US11517591B2, “Immunogenic peptides specific to BCMA and TACI antigens” (Dana-Farber Cancer Institute, Inc., priority 2017, dated 2022).
Values belong to the compound of their own block, whether it stands above or below them.

How the values were obtained:
[1] = molecular target: T1, HLA-A2 molecule (Homo sapiens, UniProt P04439, D140Y/D185E/D98H/E176V/E277Q/G131W/G231S/I119V/I121R/I166T/I218V/L300P/L318F/N151K/N90K/P208A/P217A/Q86G/Q94H/R138H/R169H/T345S); experiment: Peptide/HLA-A2 complex stability on peptide-loaded T2 cells post-brefeldin A; format: binding
T1 construct: endogenous in cells; host or cells: T2 cell line (human B and T cell hybrid), provided by Dr. J. Molldrem
Description: The native and heteroclitic BCMA and TACI peptides were examined for HLA-A2 binding stability using the T2 cell line. T2 cells were pulsed with the respective peptide. After overnight incubation, the cells were washed to remove unbound peptide; they were evaluated for binding affinity as shown above and stability as following. The cells were incubated with 10 μg/ml Brefeldin A (Sigma) at 37° C. and 5% CO2 for 1 hour to block cell surface expression of newly synthesized HLA-A2 molecules. Peptide/HLA-A2 binding stability was evaluated at 0, 2, 4, 6 and 18 hours post-Brefeldin A treatment. Following the incubation period, the cells were harvested, washed, stained with mouse anti-human HLA-A2-FITC mAb and analyzed by flow cytometry. […] Therefore, the Heteroclitic #4 BCMA72-80 (YLMFLLRKI (SEQ ID NO: 13)) and Heteroclitic #3. TACI154-162 (YLSADQVAL (SEQ ID NO: 16) peptides were selected for further evaluation of their immunogenic potential to generate MM-specific cytotoxic T cells (CTLs).
(§1) T2 cells were pulsed overnight with various doses of peptide plus β2-microglobulin (3 μg/ml) (Sigma, St Louis, Mo.). Following overnight incubation, the cells were stained with HLA-A2-PE mAb and analyzed using a FACSCanto™ flow cytometer (BD). Peptide/HLA-A2 complex stability was measured on peptide loaded T2 cells at 0, 2, 4, 6 and 14 hours post-brefeldin A treatment by staining with HLA-A2-PE mAb and flow cytometric analysis.
as §1, with “concentrations” for “doses”, “The stability of peptide/HLA-A2” for “Peptide/HLA-A2”, “binding” for “stability”, “treatment followed” for “treatment”

[2] = molecular target: T1, HLA-A2 molecule; experiment: HLA-A2 binding affinity assay on peptide-pulsed T2 cells (HLA-A2 up-regulation, flow cytometry MFI); settings: for HLA-A2 binding affinity, heteroclitic vs native peptide: Example 4, FIGS. 4 and 5; for change in HLA-A2 binding affinity of heteroclitic BCMA peptide compared to native peptide: Example 12, n=3, p<0.05; for HLA-A2 affinity of heteroclitic TACI peptide compared to native peptide: Example 13, peptide doses 50 μg/ml and 100 μg/ml; for HLA-A2 binding affinity of native BCMA peptides: Example 12, six native peptides; for HLA-A2 specificity (up-regulation of HLA-A2 on T2 cells, MFI): native peptides 0-200 μg/ml, overnight, Example 3, FIGS. 2, 3
Description: The listed BCMA peptides were evaluated for HLA-A2-specific binding capacity using the T2 cell line. In the assay, T2 cells were washed, resuspended in serum-free AIM-V medium to a final concentration of 1×10^6 cells/ml and transferred into wells of a 24-well tissue culture plate. The cells were pulsed with different concentrations of respective BCMA peptide (0-200 μg/ml) plus 3 μg/ml human β2-microglobulin (Sigma) and incubated at 37° C., 5% CO2 in humidified air. Following overnight incubation, the cells were washed, stained with mouse anti-human HLA-A2-FITC mAb for 15 minutes at 4° C., washed and analyzed using a FACSort™ flow cytometer with CellQuest™ v2.1 software (Becton Dickinson, San Jose, Calif.). […] Among the BCMA peptides evaluated, “#4. […] (FIG. 2).
as §1
as §1, with “concentrations” for “doses”, “The stability of peptide/HLA-A2” for “Peptide/HLA-A2”, “binding” for “stability”, “treatment followed” for “treatment”

[3] = tested on: tumor cells; experiment: Combination of peptide stimulation/vaccination with immune modulatory drugs, peptide-specific CTL activity; format: cell-based, human; settings: in combination with XBP1/CD138/CS1 peptide stimulation/vaccination
Description: Even in patients with refractory MINI relapsing after allotransplantation, long-lasting responses have been achieved with the infusion of donor lymphocytes (DLI). These early encouraging results of DLI have provided the framework for evaluation of active-specific immunotherapy approaches to treat MM. […] The success of vaccination depends on selection of the appropriate patient population, targeting antigens expressed selectively on tumor, and utilizing combination approaches to effectively induce and maintain antigen-specific memory anti-tumor immune responses. […] Importantly, these effects were confined primarily to antigen-specific CD45RO^+ memory CTL, with the most robust increases in IFN-γ and granzyme B production and CD8^+ T cell proliferation in response to tumor cells observed mainly within the specific CM subset.

[4] = tested on: patients with smoldering MM (SMM); experiment: Clinical trials of XBP1/CD138/CS1 multipeptide vaccine in smoldering MM; format: in vivo, human; settings: multipeptide vaccine in combination with lenalidomide
Description: Due to the encouraging preclinical results, the XBP1/CD138/CS1 multipeptide vaccine has been evaluated, alone and in combination with lenalidomide, in clinical trials to treat patients with smoldering MM (SMM), as well as in combination with anti-PD1 in clinical trials to treat patients with triple negative breast cancer. […] Although stable disease and responses have been observed in SMM, randomized trials are needed to assess whether time to progression from SMM to active disease can be prolonged by the peptide vaccination.

[5] = tested on: CD3+ T cells obtained from HLA-A2+ donors; experiment: Induction and phenotypic analysis of peptide-specific CTL by repeated peptide stimulation; format: cell-based, human
Description: The peptide-specific CTL were generated from different HLA-A2^+ normal donors for the evaluation of the functional activities targeting MM cell lines. To generate the peptide-specific CTL, mature dendritic cells (mDC) generated from the same donor were resuspended in serum-free AIM-V media and pulsed with 50 μg/ml of the Heteroclitic #4 BCMA72-80 (YLMFLLRKI (SEQ ID NO: 13)) peptide or “Heteroclitic #3 TACI154-162 (YLSADQVAL (SEQ ID NO: 16))” peptide, overnight at 37° C., 5% CO2 in humidified air. The peptide-pulsed mDC were washed, counted, irradiated at 10 Gy and used to prime CD3^+ T cells at a 1:20 antigen-presenting cells/peptide-to-CD3^+ T cell ratio in AIM-V media supplemented with 10% human AB serum. […] To maintain the T cells ex vivo, IL-2 (50 U/ml) was added to the cultures two days after the second stimulation. Control T cell cultures were maintained under the same culture conditions in the presence of IL-2 (50 U/ml), but without peptide stimulation. Phenotype of the resulting CTL was evaluated one week after each cycle of peptide stimulation. […] The BCMA peptide-specific CTL cultures contained a higher percentage of CD8^+ T cells (˜80%) upon 4 cycle of peptide stimulation compared to non-peptide stimulated control T cells (˜20%) (FIGS. 8A-8C).
Antigen-specific CTL can be phenotypically identified as activated/memory T cells from naïve T cells by their expression of distinct cell surface antigens. The phenotype of the BCMA-CTL were examined as potential effector cells by analyzing the phenotype of naïve and memory cells. BCMA peptide-specific CTL were generated by repeated stimulation of HLA-A2^+ normal donor's CD3^+ T cells weekly with antigen-presenting cells pulsed with 50 μg/ml heteroclitic BCMA72-80 (YLMFLLRKI (SEQ ID NO: 13)). One week after each peptide stimulation, the resulting CTL were evaluated for their phenotypic profile by flow cytometry.
BCMA peptide-specific CTL (BCMA-CTL) were generated ex vivo by repeated stimulation of CD3^+ T cells obtained from HLA-A2^+ donors with peptide-pulsed antigen-presenting cells (APC). In brief, peptide (50 μg/ml)-pulsed APC were irradiated (10 Gy) and used to stimulate T cells at a 1 APC/peptide: 20 T cell ratio. The T cell cultures were restimulated every 7 days and maintained in AIM-V medium supplemented with 10% human AB serum (BioWhittaker) in the presence of IL-2 (50 units/ml).
Phenotypic characterization was performed on BCMA-CTL after staining with Live/Dead Aqua stain kit and fluorochrome conjugated anti-human mAbs and Tetramer-PE. Alternatively, the MM and breast cancer cell lines were stained with fluorochrome-conjugated BCMA or HLA-A2 mAb. After staining, the cells were washed, fixed in 2% paraformaldehyde, and analyzed by flow cytometry.
TACI peptide-specific CTL (TACI-CTL) were generated ex vivo by repeated stimulation of enriched CD3^+ T cells obtained from HLA-A2^+ donors with peptide-pulsed antigen-presenting cells (APC). In brief, peptide (50 μg/ml)-pulsed APC were irradiated (10 Gy) and used to stimulate T cells at a 1:20 APC/peptide-to-T cell ratio. The T cell cultures were restimulated every 7 days and maintained in AIM-V medium supplemented with 10% human AB serum (BioWhittaker) in the presence of IL-2 (50 units/ml).
Phenotypic characterization was performed on the MM target cells to conform TACI expression. Phenotypic characterization was performed on the TACI-CTL after staining with Live/Dead Aqua stain kit and fluorochrome conjugated anti-human mAbs. After staining, the cells were washed, fixed in 2% paraformaldehyde, and analyzed by flow cytometry.

[6] = after 3 cycles of peptide stimulation
[7] = after 4 cycles of peptide stimulation

Compound: Nc1cccc2c1CN(C1CCC(=O)NC1=O)C2=O (stereo not drawn) [lenalidomide]
peptides-specific CTL activities against tumor cells [3]: enhanced the peptides-specific CTL activities against tumor cells
CD8+ T cells with tetramer-positivity and IFN-γ production [4]: triggered higher mean fold increases in CD8^+ T cells with tetramer-positivity and IFN-γ production

Compound: O=C(CCCCCCNC(=O)c1cnc(N(c2ccccc2)c2ccccc2Cl)nc1)NO [ACY241]
peptides-specific CTL activities against tumor cells [3]: enhanced the peptides-specific CTL activities against tumor cells

Compound: YLGLCLCAV [heteroclitic TACI166-174, heteroclitic TACI peptide]
HLA-A2 affinity of heteroclitic TACI peptide compared to native peptide [2]: no significant improvement in HLA-A2 affinity

Compound: YLVAVACFL [heteroclitic TACI178-186, heteroclitic TACI peptide]
HLA-A2 affinity of heteroclitic TACI peptide compared to native peptide [2]: no significant improvement in HLA-A2 affinity

Compound: SQNEYFDSL [BCMA9-17 (SQNEYFDSL), native BCMA peptide]
HLA-A2 binding affinity of native BCMA peptides [2]: non-HLA-A2 specific

Continued, in another order:

HLA-A2 stability of heteroclitic vs native BCMA peptide ([1]; Example 12): further enhanced
HLA-A2 binding affinity, heteroclitic vs native peptide [2]: increased from their native peptide
Compound: YILWTCLGL [heteroclitic hBCMA54-62, heteroclitic BCMA peptide]
change in HLA-A2 binding affinity of heteroclitic BCMA peptide compared to native peptide [2]: highest increase in HLA-A2 binding affinity

HLA-A2 binding affinity, heteroclitic vs native peptide [2]: increased from their native peptide
Compound: YLSADQVAL [heteroclitic TACI154-162, heteroclitic TACI peptide]
CM CD8+ T cells [5, 6]: 47.8%
EM CD8+ T cells [5, 6]: 52.4%
Naïve CD8+ T cells [5, 6]: 2.2%
CM CD8+ T cells [5, 7]: 24.4%
EM CD8+ T cells [5, 7]: 74.1%
Naïve CD8+ T cells [5, 7]: 0.72%
frequency of effector memory (CD45RO+/CCR7-) CD3+CD8+ T cells [5, 7]: increased
CM CD8+ T cells ([5]; after 5 cycles of stimulation): 7.36%
EM CD8+ T cells ([5]; after 5 cycles of stimulation): 69.7%
Naïve CD8+ T cells ([5]; after 5 cycles of stimulation): 0.57%
HLA-A2 binding stability, heteroclitic vs native peptide ([1]; 50 ug/ml, 0, 2, 4, 6 and 18 hours post-Brefeldin A, Example 4, FIGS. 6 and 7): significant improvement in their HLA-A2 affinity at all the time points evaluated
HLA-A2 binding affinity (time=0) and stability compared to native peptide ([1]; TACI peptides 50 μg/ml, 2, 4, 6 and 18 hours): highest HLA-A2 binding affinity (time=0) and stability (2, 4, 6 and 18 hours)
HLA-A2 affinity of heteroclitic TACI peptide compared to native peptide [2]: greatly enhanced affinity from its native form

HLA-A2 specificity (up-regulation of HLA-A2 on T2 cells, MFI) [2]: second highest level of the specificity
Compound: AILWTCLGL [BCMA54-62 (AILWTCLGL), native BCMA peptide]
HLA-A2 binding affinity of native BCMA peptides [2]: highest HLA-A2 binding affinity in a dose-dependent manner

HLA-A2 specificity (up-regulation of HLA-A2 on T2 cells, MFI) [2]: highest level of HLA-A2 specificity
Compound: VLMFLLRKI [BCMA72-80 (VLMFLLRKI), native BCMA peptide]
HLA-A2 binding affinity of native BCMA peptides [2]: highest HLA-A2 binding affinity in a dose-dependent manner

HLA-A2 affinity of native TACI peptides ([2]; Example 13, six native peptides): highest level of affinity
HLA-A2 specificity (up-regulation of HLA-A2 on T2 cells, MFI) [2]: highest level
Compound: TLGLCLCAV [TACI166-174 (TLGLCLCAV), native TACI peptide]

change in HLA-A2 binding affinity of heteroclitic BCMA peptide compared to native peptide [2]: did not alter its HLA-A2 affinity status
Compound: YQNEYFDSL [heteroclite BCMA9-17, heteroclitic BCMA peptide]
